Results taken from patent US20140120095A1 (Boehringer Ingelheim, published 2014).

T1: human DLL1 (human, UniProt O00548 18-545, limits assumed)
T1 construct: also called hDLL1
T1 sequence (looked up): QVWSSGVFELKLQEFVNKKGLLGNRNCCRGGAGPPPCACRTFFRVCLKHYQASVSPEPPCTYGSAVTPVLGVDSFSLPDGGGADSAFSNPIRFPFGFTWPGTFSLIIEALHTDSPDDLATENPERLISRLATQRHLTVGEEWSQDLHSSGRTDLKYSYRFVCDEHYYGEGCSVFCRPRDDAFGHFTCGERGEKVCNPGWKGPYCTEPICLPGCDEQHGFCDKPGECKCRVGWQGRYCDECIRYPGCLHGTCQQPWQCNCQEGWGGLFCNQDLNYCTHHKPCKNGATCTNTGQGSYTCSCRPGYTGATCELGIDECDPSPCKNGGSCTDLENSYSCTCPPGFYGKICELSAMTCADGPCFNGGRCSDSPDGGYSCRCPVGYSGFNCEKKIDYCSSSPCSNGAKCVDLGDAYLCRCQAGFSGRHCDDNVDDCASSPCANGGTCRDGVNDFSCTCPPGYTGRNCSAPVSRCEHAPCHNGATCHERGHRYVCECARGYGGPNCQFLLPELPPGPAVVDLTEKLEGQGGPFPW


How the values were obtained:
[1] = molecular target: T1, human DLL1; test: binding ELISA on coated recombinant human DLL1, OD 405 nm
Summary of the method: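 Plates coated overnight at 4° C with 1 μg/mL ligand, blocked with 1% casein in PBS. VHH dilution series applied; bound VHH detected via mouse anti-myc then anti-mouse-AP conjugate.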

[2] = molecular target: T2, human DLL4 expressed on cells (CHO-hDLL4; HEK293-hDLL4) (human, UniProt Q9NR61 27-685); test: FACS titration on human DLL4 expressing cells, detection anti-c-myc Alexa647 (Example 5.8, Example 7), MCF
T2 construct: full length human DLL4 overexpressed on CHO cells (FMAT, FACS) or HEK293 cells (reporter assay)

| binding result [1] | EC50 (read off the curve) [2] [nM] | Binder |
| --- | --- | --- |
| no binding (tested: 5e-7 M) | – | DLLBII101G08 (VHH, also called 101G8; DLLBII101G8) VHH: EVQLVESGGGLVQAGGSLRLSCAASGRTFSSYAMAWFRQAPGKEREFVAAIRWSGGTAYYADSVQGRFTISRDNAKNTVYLQMNSLKPEDTAVYYCANRAADTRLGPYEYDYWGQGTQVTVSS |
| – | ~10 | DLLBII129E11 (VHH, not shown: small tags and cut ends) VHH: EVQLVESGGGLVQAGGSLRLSCAASGRTFSSYAMAWYRQAPGKEREYVAAIRWSGGTAYYADSVQGRFTISRDNAKNTVYLQMNSLKPEDTAVYYCANRAPDTRLRPYLYDYWGQGTQVTVSS |
| no binding (tested: 5e-7 M) | – | DLLBII115A05 (VHH, also called 115A5; DLLBII115A5) VHH: EVQLVESGGGLVQPGGSLRLSCAASGFTFGSYDMSWVRRSPGKGPEWVSSINSGGGSTYYADFVKGRFTISRDNAKNTLYLQMNSLKPEDTAVYYCAADRYIRARQGDYWGAYEYDYWGQGTQVTVSS |
